In US20110044986A1 (Amgen, published 2011):

Assays:
human Aβ40 fibrils [1] = biological target: T1, human Aβ40 fibrils (human); assay: BIAcore, fibrils immobilized, antibody injected
T1 construct: Fibrillar aggregate of the 40-residue peptide prepared in vitro; also called Fibrillar Aβ40; Aβ40 amyloid fibrils
Experimental: (§1) Preparation of Biacore Chip Surfaces: Immobilization of Proteins to a BIAcore sensor chip (CM5) was performed according to manufacturer's instructions. Briefly, carboxyl groups on the sensor chip surfaces were activated by injecting 60 μL of a mixture containing 0.2 M N-ethyl-N′-(dimethylaminopropyl) carbodiimide (EDC) and 0.05 M N-hydroxysuccinimide (NHS). Specific surfaces were obtained by injecting rProtein G (Pierce), goat anti-mouse Fc (Jackson Immuno Research Lab) or Aβ aggregates diluted in 10 mM acetate, pH 4.0 at concentrations between 5 and 20 μg/mL. Excess reactive groups on the surfaces were deactivated by injecting 60 μL of 1 M ethanolamine. […] A blank, mock-coupled reference surface was also prepared on the sensor chips for background subtraction.
(§2) Kinetic analysis of antibodies binding to immobilized Aβ fibrils: Avidity measurements to Aβ fibrils were made by immobilizing amyloid fibrils on the sensor chip surface followed by injection of antibody solutions over the surface, and injection of antibody solutions over a blank surface for background subtraction. Antibodies were diluted in PBS+0.005% P-20+0.1 mg/mL BSA at concentrations varying from 100 nM to 0.2 nM.

human Aβ42 fibrils [2] = biological target: T2, human Aβ42 fibrils (human); assay: BIAcore, fibrils immobilized, antibody injected
T2 construct: Fibrillar aggregate of the 42-residue peptide prepared in vitro; also called Fibrillar Aβ42; Aβ42 amyloid fibrils
Experimental: as §1, §2

[3] = biological target: amyloid plaques in unfixed Tg2576 mouse brain sections (human, UniProt P05067 672-713, limits assumed); assay: cell-based or functional assay
Aβ42 oligomers = biological target: T3, Aβ42 oligomers (human); assay: immunoprecipitation / Western blot
T3 construct: Soluble oligomers prepared from Aβ42 peptide in Ham's F-12; dimer, trimer and tetramer were seen on the blot; also called soluble, oligomeric species of Aβ42; Aβ42 dimer, trimer, and tetramer

human Aβ40 fibrils [4] = biological target: T1, human Aβ40 fibrils; assay: ELISA, fibrils dried on plate, europium TRF
Experimental: (§3) The fibrils (Aβ or collagen) were diluted to 10 μg/ml in water and mixed thoroughly. The solution was aliquoted into the wells of a microtiter plate (Immulon-2; VWR; Cat # 62404-972) at 50 μl per well (resulting in 0.5 μg fibrils/well final). The plate was dried overnight by being placed uncovered in a 37° C. incubator.
(§4) The wells were blocked with 200 μl of blocking solution and incubated for ≧1 hour at room temperature (RT) with shaking. The blocking solution was flicked out and gently dried on a paper towel. 100 μl of primary antibody diluted in PBS containing 10% blocking solution was added to each well and the plate was incubated at RT for 1 hour with shaking. The plate was washed with 5-10× in TBS, pH 7.5+0.05% Tween 20. 100 μl of secondary antibodies (each diluted 1-2,000-fold in PBS) was added to each well and the plate was incubate at RT for 1 hour with shaking. The plate was washed with 5-10× in TBS, pH 7.5+0.05% Tween 20. 100 μl Streptavidin-Europium reagent (1-1,000-fold dilution) was added (100 μL/well) and the plate was incubated at room temperature for 45 minutes with shaking. The plate was washed 5-10× in TBS, pH 7.5+0.05% Tween 20. 120 μl Enhance Solution was added and the plate was incubated at room temperature for 15-30 minutes with shaking. The plate was read on a Victor TRF plate reader (Europium program).

human Aβ42 fibrils [5] = biological target: T2, human Aβ42 fibrils; assay: ELISA, fibrils dried on plate, europium TRF
Experimental: as §3, §4

human Aβ40 monomer [6] = biological target: T4, human Aβ40 monomer (human); assay: ELISA, monomer coated on plate, europium TRF
T4 construct: also called soluble Aβ40
Experimental: (§5) The same techniques were used for the coating of the microtiter plate for monomer ELISA. The fibrils Aβ monomer were diluted to 2.5 μg/ml in Coating buffer and mixed thoroughly. The solution was aliquoted into the wells of a microtiter plate [Immulon-2; VWR; Cat.# 62404-972] at 100 μl per well. The plate was sealed and incubated overnight at 4° C. The plate was washed 5-10× to remove Aβ coating solution prior to starting the assay.
as §4

human Aβ42 monomer [7] = biological target: T5, human Aβ42 monomer (human); assay: ELISA, monomer coated on plate, europium TRF
T5 construct: also called soluble Aβ42; monomeric Aβ42
Experimental: as §5, §4

human Aβ40 fibrils [8] = biological target: T1, human Aβ40 fibrils; assay: BIAcore, fibrils immobilized, antibody injected (avidity)
Experimental: as §1, §2

human Aβ42 fibrils [9] = biological target: T2, human Aβ42 fibrils; assay: as above
Experimental: as §1, §2

human Aβ40 monomer [10] = biological target: T4, human Aβ40 monomer; assay: BIAcore, antibody captured on protein G, Aβ monomer injected
Experimental: as §1
(§6) Kinetic analysis of Aβ monomers binding to protein G captured antibodies: The kinetic analysis of the interaction between Aβ monomers and antibodies was performed as follows: Antibodies to be tested were diluted in PBS+0.005% P-20+0.1 mg/mL BSA and injected over the immobilized protein G Fc surface. Aβ monomers were diluted in PBS+0.005% P-20+0.1 mg/mL BSA from 1000 nM to 2 nM, and each concentration was injected over the captured antibody surfaces.

human Aβ42 monomer [11] = biological target: T5, human Aβ42 monomer; assay: as above
Experimental: as §1, §6

T5 sequence (peptide, as listed by the source): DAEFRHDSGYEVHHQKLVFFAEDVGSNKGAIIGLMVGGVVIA
T4 sequence (peptide, as listed by the source): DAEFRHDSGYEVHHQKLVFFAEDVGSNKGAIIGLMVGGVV

Row | koff (human Aβ40 fibrils [1]) | koff (human Aβ42 fibrils [2]) | EC50 (human Aβ40 fibrils [4]) | EC50 (human Aβ42 fibrils [5]) | EC50 (human Aβ40 monomer [6]) | EC50 (human Aβ42 monomer [7]) | Kd (human Aβ40 fibrils [8]) | koff (human Aβ40 fibrils [8]) | kon (human Aβ40 fibrils [8]) | Kd (human Aβ42 fibrils [9]) | koff (human Aβ42 fibrils [9]) | kon (human Aβ42 fibrils [9]) | Kd (human Aβ40 monomer [10]) | Kd (human Aβ42 monomer [11]) | Binder | further results
1 | 0.005 s⁻¹ | 0.0021 s⁻¹ |  |  |  |  |  |  |  |  |  |  |  |  | antibody 6.27 (antibody, V domains shown, Human anti-Aβ antibody; also called Ab 6.27) VH: QVQLQESGPGLVKPSKTLSLTCTVSGGSISSYYWSWIRQPAGKGLEWIGRIYTSGSTNLNPSLKSRVTMSIDTSKSQFSLKLSSVTAADTAVYYCARLELRNYYYGMDVWGQGTTVTVSS VL: not shown | 
2 | 8.2e-05 s⁻¹ | 0.00021 s⁻¹ |  |  |  |  |  |  |  |  |  |  |  |  | antibody 7.28 (antibody, V domains shown, Human anti-Aβ antibody; also called Ab 7.28) VH: not shown VL: QSVLTQPPSVSAAPGQKVTISCSGSSSNIGNNYVFWYQQLPGTAPKLLIYDNNKRPSGIPDRFSGSKSGTSATLGITGLQTGDEADYYCGTWDSSLSAGVFGGGTKVTAL | 
3 | 0.00014 s⁻¹ | 0.00029 s⁻¹ |  |  |  |  |  |  |  |  |  |  |  |  | antibody 7.2 (antibody, V domains shown, Human anti-Aβ antibody; also called Ab 7.2) VH: QVQLVESGGGVVQPGRSLRLSCAASGFTFSSYGMHWVRQAPGKGLEWVAVIWYDGSNKYYADSVKGRFTISRDISKNTLYLQMNSLRAEDTAVYYCARSGPPLYSGIYYYYGMDVWGQGTTVTVSS VL: SSELTQDPAVSVALGQTVRITCQGDSLRAYYAHWYQQKPGQAPVLVIYGKNNRPSGIPDRFSGSNSGNTASLTITGAQAEDEADYYCNSRDSSGNHVVFGGGTKLTVL | 
4 | 0.0008 s⁻¹ | 0.00049 s⁻¹ |  |  |  |  |  |  |  |  |  |  |  |  | antibody 7.11 (antibody, V domains shown, Human anti-Aβ antibody; also called Ab 7.11) VH: QLQLQESGPGLVKPSETLSLTCTVSGGSISSSRYYWGWIRQPPGKGLEWIGSISYRGNTYYYPSLKSRVTISVDTSKNQFSLKLNSVTAADTAVYYCARRTYSSGWSYFDYWGQGTLVTVSS VL: SYELTQPYSMSVATAQMARITCGGNNIGSKAVHWYQQKPGQDPVLVIYSDSNRPSGIPERFSGSNPGNTATLTISRIEAGDEANYYCQVWDSSSDHWVFGGGTKLTVL | 

Further lines, the binder ahead of its results:

Row | Binder | koff (human Aβ40 fibrils [1]) | koff (human Aβ42 fibrils [2]) | EC50 (human Aβ40 fibrils [4]) | EC50 (human Aβ42 fibrils [5]) | EC50 (human Aβ40 monomer [6]) | EC50 (human Aβ42 monomer [7]) | Kd (human Aβ40 fibrils [8]) | koff (human Aβ40 fibrils [8]) | kon (human Aβ40 fibrils [8]) | Kd (human Aβ42 fibrils [9]) | koff (human Aβ42 fibrils [9]) | kon (human Aβ42 fibrils [9]) | Kd (human Aβ40 monomer [10]) | Kd (human Aβ42 monomer [11]) | further results
5 | antibody 1.15 (antibody, V domains shown, Human anti-Aβ antibody) VH: not shown VL: DVVMTQSPFSLPVTLGQPASISCRSSQSLVYSDGNTSLNWFQQRPGQSPRRLIYKVSKWDSGVPDRFSGSGSGTDFTLKISRVEAEDVGVYYCMQGTHWPRGFTFGPGTKVDIK | 0.00096 s⁻¹ | 0.0011 s⁻¹ |  |  |  |  |  |  |  |  |  |  |  |  | 
6 | antibody 1.7 (antibody, V domains shown, Human antibody from a Xenomouse hybridoma (IgG1 or IgG4 strains); also called Ab 1.7; human antibody 1.7) VH: QVTLKESGPVLVKPTETLTLTCTVSGFSLSNARMSVSWIRQPPGKALEWLAHIFSNDEKSYSTSLKSRLTISKDTSKSQVVLTMTNMDPVDTATYYCARIRGTVGFDYWGQGTLVTVSS VL: not shown |  |  | 0.09 nM | 0.071 nM | 0.615 nM | 0.052 nM | 0.1 nM | 0.00042 s⁻¹ | 3.8e+06 M⁻¹ s⁻¹ | 2.9 nM | 0.0005 s⁻¹ | 170000 M⁻¹ s⁻¹ | > 200 nM | > 20 nM | EC50 of ex vivo phagocytosis [3]: 2 µg/mL; binding result (Aβ42 oligomers): binds
7 | antibody 1.1 (antibody, human IgG1, kappa, V domains shown, also called Ab 1.1; human antibody 1.1) VH: QVTLKESGPVLVKPTETLTLTCTVSGFSLSNARMSVSWIRQPPGKALEWLAHIFSNDEKSYSTSLKSRLTISKDTSKSQVVLTMTNMDPVDTATYYCARIRGTVGYDYWGQGTLVTVSS VL: not shown |  |  | 0.133 nM | 0.082 nM | 0.054 nM | 0.045 nM | 0.02 nM | 8.1e-05 s⁻¹ | 4.2e+06 M⁻¹ s⁻¹ | 0.8 nM | 0.00016 s⁻¹ | 200000 M⁻¹ s⁻¹ | 117 nM | 16 nM | koff (human Aβ40 monomer [10]): 0.015 s⁻¹; kon (human Aβ40 monomer [10]): 130000 M⁻¹ s⁻¹; koff (human Aβ42 monomer [11]): 0.0039 s⁻¹; kon (human Aβ42 monomer [11]): 240000 M⁻¹ s⁻¹
8 | antibody 1.2 (antibody, human IgG1, kappa, V domains shown, also called Ab 1.2; human antibody 1.2) VH: QVTLKESGPVLLKPTETLTLTCTVSGFSLSNARMGVSWIRQPPGKALEWLAHIFSNDEKSYITSLKSRLTISKDTSKSQVVLTMTNMDPVDTATYYCARIPLRSPGAFDIWGQGTMVTVSS VL: DIVMTQTPLSSPVTLGQPASISCRSSQSLVHSDGNTYLNWLQQRPGQPPRLLIYKISNRFSGVPDRFTGSGAGTDFTLKISRVEAEDVGVYTCMQVTQFPLTFGQGTRLEIKR |  |  | 0.115 nM | 0.086 nM | 0.689 nM | 0.056 nM | 0.06 nM | 0.00017 s⁻¹ | 2.9e+06 M⁻¹ s⁻¹ | 1.7 nM | 0.00019 s⁻¹ | 170000 M⁻¹ s⁻¹ | > 200 nM | 14 nM | binding result (Aβ42 oligomers): binds; koff (human Aβ42 monomer [11]): 0.0011 s⁻¹; kon (human Aβ42 monomer [11]): 78000 M⁻¹ s⁻¹
9 | antibody 1.9 (antibody, human IgG1, kappa, V domains shown, also called Ab 1.9; human antibody 1.9) VH: QVTLKESGPVLVKPTETLTLTCTVSGFSLSNARMGVSWIRQPPGKALEWLAHIFSNDEKSYSTSLKSRLTISKDTFKSQVVLTMTNMDPVDTATYYCARIPLRSPGAFDIWGQGTMVTVSS VL: EIVMTQTPLSSPVTLGQPASISCRSSQSLVHSDRNTYLSWLQQRPGQPPRLLIYKISNRFSGVPDRFSGSGAGTDFTLKISRVEAEDVGVYYCMQTTQLPLTFGQGARLEIKR |  |  | 0.195 nM | 0.096 nM | 0.042 nM | 0.037 nM | 0.03 nM | 0.00017 s⁻¹ | 5.3e+06 M⁻¹ s⁻¹ | 1.8 nM | 0.00019 s⁻¹ | 110000 M⁻¹ s⁻¹ | > 200 nM | 47 nM | koff (human Aβ42 monomer [11]): 0.0029 s⁻¹; kon (human Aβ42 monomer [11]): 61000 M⁻¹ s⁻¹
10 | antibody 1.14 (antibody, V domains shown, Human anti-Aβ antibody) VH: EVQLVESGGGLVQPGGSLRLSCAASGFTFSSYSMNWVRQAPGKGLEWVSYISRSSSAIYYADSVKGRFTISRDNAKNSLYLQMNSLRDEDTAVYYCARETTVTTRFYYYYYGVDVWGQGTTVTVSS VL: DIQMTQSPSSVSASVGDRVTITCRASQGISSWLAWFQQKPGKAPKLLIYAASSLQSGVPSRFSGSGSGTDFTLTISSLQPEDFATYYCQQANSFPRTFGQGTKVEIK | 0.0013 s⁻¹ | 0.00087 s⁻¹ |  |  |  |  |  |  |  |  |  |  |  |  | 
11 | antibody 6.18 (antibody, V domains shown, Human anti-Aβ antibody; also called Ab 6.18) VH: EVQLVESGGGLVQPGGSLRLSCAASGFTFSSYSMNWVRQAPGKGLEWLSYISSRSSTIYYADSVKGRFTISRDNAKNSLYLQMNSLRDEDTAVYYCARERTGTTRYYYYYYGMDVWGQGTTVTVSS VL: DIQMTQSPSSVSASVGDRVTITCRASQGISSWLAWSQQKPGKAPKLLIYAASSLQSGVPSRFSGSGSGTDFTLTISSLQPEDFATYYCQQANSFPRTFGQGTKVEIK | 0.004 s⁻¹ | 0.0026 s⁻¹ |  |  |  |  |  |  |  |  |  |  |  |  | 
